Kd data for two substances are collected here from paper PMC4620603.

One may read the Kd as the concentration at which binding is half-saturated. Low readings indicate tighter binding, high ones weaker binding.

For this experiment, the target named is pyrene-labeled tropomyosin from bovine cardiac tissue (bovine) (UniProt Q5KR49). The experiment can be described thus: other fluorescence titration; troponin complex binding to 100 nM pyrene-tropomyosin, 23 °C, 20 mM Hepes pH 7.5, 100 mM KCl, 2 mM MgCl2, 1 mM DTT.

In turn, “human adult cardiac troponin complex with R205Q troponin T (from UniProt P45379-6 1-288; P19429 1-210; P02585 1-160)” returned a Kd of 48 nM.

On to “human adult cardiac troponin complex, wild type (troponin T, troponin I, troponin C) (from UniProt P45379-6 1-288; P19429 1-210; P02585 1-160)”, for which the Kd came to 68 nM.
